Laboratory results reported in paper PMC6442233, “SAR and molecular mechanism studies of monoamine oxidase inhibition by selected chalcone analogs” (Journal of Enzyme Inhibition and Medicinal Chemistry, 2019).

What was measured:
[1] = substrate: CN1CC=C(c2cccn2C)CC1; experiment: Spectrophotometric MAO-B assay with MMTP as substrate; type: biochemical, human; conditions: other: MMTP as substrate; 37.0 °C
[2] = substrate: CN1CC=C(c2cccn2C)CC1; experiment: Spectrophotometric MAO-A assay with MMTP as substrate; type: biochemical, human; conditions: other: MMTP as substrate; 37.0 °C

| Protein | Km [1] [µM] | Km [2] [µM] |
| --- | --- | --- |
| human MAO-B (Homo sapiens) (protein, purchased Sigma-Aldrich) MSNKCDVVVVGGGISGMAAAKLLHDSGLNVVVLEARDRVGGRTYTLRNQKVKYVDLGGSYVGPTQNRILRLAKELGLETYKVNEVERLIHHVKGKSYPFRGPFPPVWNPITYLDHNNFWRTMDDMGREIPSDAPWKAPLAEEWDNMTMKELLDKLCWTESAKQLATLFVNLCVTAETHEVSALWFLWYVKQCGGTTRIISTTNGGQERKFVGGSGQVSERIMDLLGDRVKLERPVIYIDQTRENVLVETLNHEMYEAKYVISAIPPTLGMKIHFNPPLPMMRNQMITRVPLGSVIKCIVYYKEPFWRKKDYCGTMIIDGEEAPVAYTLDDTKPEGNYAAIMGFILAHKARKLARLTKEERLKKLCELYAKVLGSLEALEPVHYEEKNWCEEQYSGGCYTTYFPPGILTQYGRVLRQPVDRIYFAGTETATHWSGYMEGAVEAGERAAREILHAMGKIPEDEIWQSEPESVDVPAQPITTTFLERHLPSVPGLLRLIGLTTIFSATALGFLAHKRGLLVRV | 101 | – |
| human MAO-A (Homo sapiens) (protein, purchased Sigma-Aldrich) MENQEKASIAGHMFDVVVIGGGISGLSAAKLLTEYGVSVLVLEARDRVGGRTYTIRNEHVDYVDVGGAYVGPTQNRILRLSKELGIETYKVNVSERLVQYVKGKTYPFRGAFPPVWNPIAYLDYNNLWRTIDNMGKEIPTDAPWEAQHADKWDKMTMKELIDKICWTKTARRFAYLFVNINVTSEPHEVSALWFLWYVKQCGGTTRIFSVTNGGQERKFVGGSGQVSERIMDLLGDQVKLNHPVTHVDQSSDNIIIETLNHEHYECKYVINAIPPTLTAKIHFRPELPAERNQLIQRLPMGAVIKCMMYYKEAFWKKKDYCGCMIIEDEDAPISITLDDTKPDGSLPAIMGFILARKADRLAKLHKEIRKKKICELYAKVLGSQEALHPVHYEEKNWCEEQYSGGCYTAYFPPGIMTQYGRVIRQPVGRIFFAGTETATKWSGYMEGAVEAGERAAREVLNGLGKVTEKDIWVQEPESKDVPAVEITHTFWERNLPSVSGLLKIIGFSTSVTALGFVLYKYKLLPRS | – | 88 |
